Results published in patent US20240270871A1 (HUMMINGBIRD BIOSCIENCE PTE, published 2024).
Read-outs that look alike come from different tables or passages of the source.

Key:
Experiment in all cases: BLI (Octet QK384), IgG captured on anti-human Fc (AHC) biosensors, recombinant human HER3 as analyte, 1:1 global fit, averaged
recombinant human HER3 [1] = target: T1, recombinant human HER3 (human, UniProt P21860 20-643, limits assumed)
Method: (§1) Biosensors were first dipped in wells containing assay buffer for 60 s to obtain baseline readings, and then IgGs (at a concentration of 12.5 nM) were captured for 120 s, followed by PBST wash for 60 s to remove any unbound antibody or non-specifically-bound protein and the second baseline was collected after IgG capture. Kinetic measurements for antigen binding were performed by dipping each of the antibody-coated biosensors into wells containing a single serial diluted concentration of recombinant human HER3 for 120 s, followed by a 120 s dissociation time by transferring the biosensors into assay buffer containing wells. AHC biosensors were regenerated for 5 s×4 times after each kinetic cycle using 10 mM glycine pH 1.7 to remove bound protein and washed with assay buffer before a new kinetic cycle. Six 1:2 serial dilutions of recombinant human HER3 (at concentrations ranging from 500 nM to 16 nM), were used to ensure an ideal concentration range of antigen, and binding signal spanning the dynamic range of the assay. Measurements for all sensors were generated in real time in parallel. Data analysis was preformed using Octet QK384 analysis 9.0 software (Pall ForteBio) according to manufacturer's recommendations for analysing a high-affinity antigen-antibody kinetics. […]

recombinant human HER3 [2] = target: T1, recombinant human HER3; remark: listed apart in the source
Method: as §1

recombinant human HER3 [3] = target: T1, recombinant human HER3; remark: listed apart in the source
Method: as §1

recombinant human HER3 [4] = target: T1, recombinant human HER3; remark: listed apart in the source
Method: as §1

recombinant human HER3 [5] = target: T1, recombinant human HER3; remark: listed apart in the source
Method: as §1

recombinant human HER3 [6] = target: T1, recombinant human HER3; remark: listed apart in the source
Method: as §1

recombinant human HER3 [7] = target: T1, recombinant human HER3; remark: listed apart in the source
Method: as §1

T1 sequence (P21860 20-643 limits assumed): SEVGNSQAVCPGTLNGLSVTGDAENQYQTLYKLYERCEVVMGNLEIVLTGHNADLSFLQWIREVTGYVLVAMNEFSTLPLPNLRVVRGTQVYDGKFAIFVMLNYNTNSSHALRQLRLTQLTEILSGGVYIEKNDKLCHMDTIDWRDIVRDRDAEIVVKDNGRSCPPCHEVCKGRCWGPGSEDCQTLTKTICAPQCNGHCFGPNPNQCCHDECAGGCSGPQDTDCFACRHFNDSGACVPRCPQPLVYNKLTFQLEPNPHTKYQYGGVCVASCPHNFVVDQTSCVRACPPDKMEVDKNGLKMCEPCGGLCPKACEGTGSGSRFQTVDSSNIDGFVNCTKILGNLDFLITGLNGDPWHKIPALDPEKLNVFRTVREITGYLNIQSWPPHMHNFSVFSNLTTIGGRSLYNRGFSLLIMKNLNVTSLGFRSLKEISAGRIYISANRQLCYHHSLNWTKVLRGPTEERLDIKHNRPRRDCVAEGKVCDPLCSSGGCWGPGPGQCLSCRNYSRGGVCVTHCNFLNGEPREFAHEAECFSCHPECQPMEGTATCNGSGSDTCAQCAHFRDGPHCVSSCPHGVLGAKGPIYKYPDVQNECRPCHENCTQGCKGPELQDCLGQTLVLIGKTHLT

Kd (recombinant human HER3 [1]): < 1 pM | Kd (recombinant human HER3 [2]): < 1 pM | Kd (recombinant human HER3 [3]): < 1 pM | Kd (recombinant human HER3 [4]): < 1 pM | Kd (recombinant human HER3 [5]): < 1 pM | Kd (recombinant human HER3 [6]): < 1 pM | Kd (recombinant human HER3 [7]): < 1 pM
B1: 10D1F hIgG1 (antibody, V domains shown)
VH: QVQLQESGPGLVKPSQTLSLTCTVSGYSITSGYSWHWIRQHPGKGLEWIGSIRYSGGTDYNPSLKSLVTISADTSKNQFSLKLSSVTAADTAVYYCARMTTAPWYPFDYWGQGTTVTVSS
VL: DIQMTQSPSSVSASVGDRVTITCKASQIVGSNVAWYQQKPGKAPEPLIYSASYLYSGVPSRFSGSGSGTDFTLTISSLQPEDFATYYCQQYSSHPLTFGQGTKLEIKR
notes: also called 10D1F.A; antibody product of clones 2-1.1, 2-1.2, 2-1.3, 2-1.4, 2-3.12, 2-3.13, 2-3.15
